B1: 1101: mAb (mouse IgG1) from clone 1101, mouse immunized with peptide of SEQ ID NO: 27; insoluble fibrin-specific antibody; VH SEQ ID NO: 12, VL SEQ ID NO: 16 (antibody, V domains shown)
VH: MECNWILPFILSVISGVYSEVQLQQSGTVLARPGASVKMSCKASGFSFTSYWMHWVKQRPGQGLEWIGAIYPGNSDTRNNQKFKGKAKLTAVTSANTAYMELSSLTNEDSAVYYCTRKAHYGNYGFAYWGQGTLVTVSAA
VL: MSGHSRNMKFPSQLLLFLLFRITGIICDIQMTQSSSYLSVSLGGRVTITCKASDHINNWLAWYQQKPGNAPRLLISGATSLETGVPSRFSGSGSGKDYTLSITSLQTEDVATYYCQQYWSTPLTFGAGTKLELKRADAAP
B2: 99-5: mAb (mouse IgG1) from clone 99-5, mouse immunized with peptide of SEQ ID NO: 26; insoluble fibrin-specific antibody; VH SEQ ID NO: 4, VL SEQ ID NO: 8 (antibody, V domains shown)
VH: MDWLWNLLFLMAAAQSIQAQIQLVQSGPELKKPGETVKISCKASGYTFTNYGMNWVKQAPGKGLKWMGWINTKIGEPTYAEEFKGRFAFSLETSASTAYLQINNLKNEDTATYFCARLLDYWGQGTTLTVSSAKTTPPSV
VL: METDTLLLWVLLLWVPGSTGDIVLTQSPASLAVSLGQRATISCRASESVDSYGNSFMHWYQQKPGQPPKLLIYRASNLESGIPARFSGSGSRTDFTLTINPVEADDVATYYCQQSNEDPRTFGGGTKLEIKRADAAPTVS

Columns and labels:
[1] = test system: triple mutant mouse-derived pancreatic cancer cell line; conditions: Alexa 647-labeled antibody, 300 μg per mouse, tail vein, imaging 1 h to day 7, FIG. 2
Protocol: Accordingly, in vivo imaging was performed using the cell line. […] The pancreatic cancer cell line was cultured in 500 mL of a RPMI 1640 (FUJIFILM Wako Pure Chemical Corporation) medium supplemented with 100 mL of inactivated fetal bovine serum (FBS, Gibco) and 10 mL of 100 units/mL Penicillin, 100 μg/mL Streptomycin, and 250 ng/mL Amphotericin B (FUJIFILM Wako Pure Chemical Corporation). The culture supernatant was then removed. The cells were washed with PBS (Invitrogen), and 2 mL of Trypsin-EDTA [0.25% (w/v) trypsin-1.0 mmol/L ethylenediaminetetraacetic acid-4Na Solution with Phenol Red, FUJIFILM Wako Pure Chemical Corporation] was added thereto. The cells were detached by pipetting and placed in a 15-mL tube (Corning Incorporated), followed by centrifugation with a centrifuge (Universal centrifuge 5800, KUBOTA Corporation Co., Ltd.) at 270×g for 3 minutes at 4° C. The supernatant was removed, and the precipitate was resuspended in 10 mL of PBS, followed by centrifugation at 270×g for 3 minutes at 4° C. After repeating this procedure three times, the concentration was adjusted to 2×10^6 cells/50 μL with PBS, and the cell solution was subcutaneously injected to 5-week old BALB/c Slc nu/nu mice (Japan SLC, Inc.) at 50 μL per mouse from the left foot base. […] The control used was InVivoMAb Mouse IgG1 Isotype control (Bio X Cell). […]

[2] = molecular target: peptide of the epitope site of 102-10 (Homo sapiens, UniProt P02675); assay: Verification of affinity by SPR (Biacore T200, multi cycle kinetics); format: binding; conditions: for Dissociation rate constant kd: immobilized epitope peptide of 102-10; for Binding rate constant ka: immobilized epitope peptide of 102-10, antibody 48.875-1500 nM; for Kd: immobilized epitope peptide of 102-10, reference for relative affinity
Protocol: When an antigen is insoluble, although SPR is not suitable for verifying the affinity of the antigen, measurement by SPR was performed as reference for comparing relative affinity levels between antibodies.
The affinity of an antibody to insoluble fibrin was calculated based on analysis by surface plasmon resonance (SPR) using Biacore T200 (GE Healthcare) to evaluate the intermolecular interaction of the antibody. […] The immobilization was performed using an amine coupling kit (BR-1000-50, GE Healthcare) and setting the […] to 90 RU. Subsequently, an antigen-antibody reaction was performed using an antibody diluted to […], 93.75, 187.5, 375, 750, and 1500 nM with 1× HBS-N buffer by a multi cycle kinetics method under conditions shown in Table 1. After the measurement, analysis using BIA evaluation (GE Healthcare) was performed to determine the KD value, kd value, and ka value.

| Molecule | Accumulation of antibody to cancer [1] | Dissociation rate constant kd [2] | Binding rate constant ka [2] | Kd [2] |
| --- | --- | --- | --- | --- |
| B1 | high | 0.00325 s⁻¹ | 93700 M⁻¹ s⁻¹ | 66.8 nM |
| B2 | high | 0.000585 s⁻¹ | 18000 M⁻¹ s⁻¹ | 32.6 nM |

Source: patent US11311626B2, “Plasmin-cleavable anti-insoluble fibrin antibody-drug conjugate” (NATIONAL CANCER CENTER JAPAN, priority 2017, dated 2022)
